Literature values as cited in article PMC8369179.

Molecular target: RAGE 23-121 (Homo sapiens) (UniProt Q15109)
Sequence of UniProt Q15109 (Q15109 23-121): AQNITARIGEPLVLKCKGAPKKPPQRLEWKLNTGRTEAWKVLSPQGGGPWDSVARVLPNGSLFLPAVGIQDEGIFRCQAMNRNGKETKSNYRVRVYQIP

Kd: 48.3 nM
Substance: HMGB1 1-215 (from UniProt P09429)
